Reference: publication PMC9239190
Residue numbers refer to the chain shown, from its start.

Key:
[1] = molecular target: T1, AdpA (Streptomyces coelicolor) (UniProt Q9L062); test: EMSA; conditions: EMSA: 20 mM Tris-HCl, 2 mM EDTA, 20 mM KCl, 0.5 mM DTT, pH 8.0, 30 C 20 min, 16.5-22 nM probe; FP: 10 mM Tris-HCl, 75 mM NaCl, pH 7.5, 37 C 15 min, 1 nM FAM …
T1 sequence: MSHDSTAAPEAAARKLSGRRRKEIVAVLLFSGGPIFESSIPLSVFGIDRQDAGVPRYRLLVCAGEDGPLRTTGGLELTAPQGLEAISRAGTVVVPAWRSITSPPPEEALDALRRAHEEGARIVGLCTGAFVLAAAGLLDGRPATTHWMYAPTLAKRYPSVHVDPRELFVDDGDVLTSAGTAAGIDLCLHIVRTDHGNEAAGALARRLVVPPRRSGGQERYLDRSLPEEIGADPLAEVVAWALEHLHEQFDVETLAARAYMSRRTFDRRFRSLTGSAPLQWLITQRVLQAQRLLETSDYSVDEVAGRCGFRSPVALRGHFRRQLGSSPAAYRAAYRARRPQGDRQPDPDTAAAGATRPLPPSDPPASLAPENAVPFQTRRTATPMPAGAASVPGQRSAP

[2] = molecular target: T2, AdpA C62S C62S (Streptomyces coelicolor) (UniProt Q9L062); test: EMSA; conditions: EMSA: 20 mM Tris-HCl, 2 mM EDTA, 20 mM KCl, 0.5 mM DTT, pH 8.0, 30 C 20 min, 16.5-22 nM probe; FP: 10 mM Tris-HCl, 75 mM NaCl, pH 7.5, 37 C 15 min, 1 nM FAM …
T2 sequence: T1 sequence with C62S

ACACATCCCGCATCGGTGATTACATGGACACGTCCCAATAAGTTGAATCTCATCTGCGCCCCCGTCGAGATTCTCCGTCTCCTGGGGGCGACAATAACAGGCCTACTCAACAGATTTCAATGTGCTTGCCGTCACAAGCGATCTCCTATTGATCAAAAATTAATCAGTGCAGCGAGCTGCACTGATTAATTTTTGCTGGATTTTACCGAGAGGCAGTGGTCGAGGCTTCCGAATCAATAGAATCTGGCATTCCTGATACGGCTGGGTCC (double strand) [PactII-4 probe]
binding [1]: binds

GCACTCCAGTCGGTTACCCAGCCCATACCGGCGCCGTCCTCTCCCGAATCGAGGCTCCCCCACGGCGGCAGCGGCATATTCACCGCCGCCAGTTGAGGACGTTACGGAAGGTGGGCACAGCGCAACACCCCCTTCGGGCCCAATCTTGAATGGCCCGAACGGACTATGGGTAAGCGGCAGATCACCCGGGGGAGTGAGCTGGCGACATGCGCGACGATCCCGACATTCAGGTCATCTCTGTTGCGCCACAACGGACACCGATTGACACACGAGGCGGATTCGGA (double strand) [PwblA probe]
binding [2]: binds
binding [1]: binds
